Experimental findings from patent publication US20240024505 are described below.

Data set [1] has as its target recombinant IGFBP-3, P17936.
The target of data set [2] is endogenous IGFBP-3 in human synovial fluid, P17936.
Sequence of endogenous IGFBP-3 in human synovial fluid, P17936 (P17936 28-291): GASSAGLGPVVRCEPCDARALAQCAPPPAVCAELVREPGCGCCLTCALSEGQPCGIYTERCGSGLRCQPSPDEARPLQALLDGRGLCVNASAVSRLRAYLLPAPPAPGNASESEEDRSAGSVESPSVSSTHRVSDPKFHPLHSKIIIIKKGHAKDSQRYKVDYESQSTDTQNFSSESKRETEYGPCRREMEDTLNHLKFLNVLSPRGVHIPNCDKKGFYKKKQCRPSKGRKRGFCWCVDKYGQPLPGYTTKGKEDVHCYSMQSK

Sequence of recombinant IGFBP-3, P17936 (P17936 28-291): as above

B1: PAPPA2 from conditioned media (protein)
chain: PPEESNQNGGEGSYREAETFNSQVGLPILYFSGRRERLLLRPEVLAEIPREAFTVEAWVKPEGGQNNPAIIAGVFDNCSHTVSDKGWALGIRSGKDKGKRDARFFFSLCTDRVKKATILISHSRYQPGTWTHVAATYDGRHMALYVDGTQVASSLDQSGPLNSPFMASCRSLLLGGDSSEDGHYFRGHLGTLVFWSTALPQSHFQHSSQHSSGEEEATDLVLTASFEPVNTEWVPFRDEKYPRLEVLQGFEPEPEILSPLQPPLCGQTVCDNVELISQYNGYWPLRGEKVIRYQVVNICDDEGLNPIVSEEQIRLQHEALNEAFSRYNISWQLSVHQVHNSTLRHRVVLVNCEPSKIGNDHCDPECEHPLTGYDGGDCRLQGRCYSWNRRDGLCHVECNNMLNDFDDGDCCDPQVADVRKTCFDPDSPKRAYMSVKELKEALQLNSTHFLNIYFASSVREDLAGAATWPWDKDAVTHLGGIVLSPAYYGMPGHTDTMIHEVGHVLGLYHVFKGVSERESCNDPCKETVPSMETGDLCADTAPTPKSELCREPEPTSDTCGFTRFPGAPFTNYMSYTDDNCTDNFTPNQVARMHCYLDLVYQQWTESRKPTPIPIPPMVIGQTNKSLTIHWLPPISGVVYDRASGSLCGACTEDGTFRQYVHTASSRRVCDSSGYWTPEEAVGPPDVDQPCEPSLQAWSPEVHLYHMNMTVPCPTEGCSLELLFQHPVQADTLTLWVTSFFMESSQVLFDTEILLENKESVHLGPLDTFCDIPLTIKLHVDGKVSGVKVYTFDERIEIDAALLTSQPHSPLCSGCRPVRYQVLRDPPFASGLPVVVTHSHRKFTDVEVTPGQMYQYQVLAEAGGELGEASPPLNHIHGAPYCGDGKVSERLGEECDDGDLVSGDGCSKVCELEEGFNCVGEPSLCYMYEGDGICEPFERKTSIVDCGIYTPKGYLDQWATRAYSSHEDKKKCPVSLVTGEPHSLICTSYHPDLPNHRPLTGWFPCVASENETQDDRSEQPEGSLKKEDEVWLKVCFNRPGEARAIFIFLTTDGLVPGEHQQPTVTLYLTDVRGSNHSLGTYGLSCQHNPLIINVTHHQNVLFHHTTSVLLNFSSPRVGISAVALRTSSRIGLSAPSNCISEDEGQNHQGQSCIHRPCGKQDSCPSLLLDHADVVNCTSIGPGLMKCAITCQRGFALQASSGQYIRPMQKEILLTCSSGHWDQNVSCLPVDCGVPDPSLVNYANFSCSEGTKFLKRCSISCVPPAKLQGLSPWLTCLEDGLWSLPEVYCKLECDAPPIILNANLLLPHCLQDNHDVGTICKYECKPGYYVAESAEGKVRNKLLKIQCLEGGIWEQGSCIPVVCEPPPPVFEGMYECTNGFSLDSQCVLNCNQEREKLPILCTKEGLWTQEFKLCENLQGECPPPPSELNSVEYKCEQGYGIGAVCSPLCVIPPSDPVMLPENITADTLEHWMEPVKVQSIVCTGRRQWHPDPVLVHCIQSCEPFQADGWCDTINNRAYCHYDGGDCCSSTLSSKKVIPFAADCDLDECTCRDPKAEENQ
With B1, in data set [1], the “IGF-1 signaling (AP-1 driven bioluminescence) in the presence of IGFBP-3” value was “Treatment with PAPPA2 allows for robust IGF-1 signaling in the modeled healthy and disease-state”; the “protease activity: intact IGFBP-3 by ELISA” value was “PAPPA2 from conditioned media efficiently cleaves IGFBP-3, as measured by an ELISA for intact IGFBP-3, with and without bound IGF-1”. Moreover, the “protease activity: intact IGFBP-3 in synovial fluid by ELISA” value in data set [2] is “Treatment of healthy or diseased human synovial fluid with conditioned media containing PAPPA2 results in a significant decrease in intact IGFBP-3”.
